Laboratory results: US20120164110A1, “DIFFERENTIALLY METHYLATED REGIONS OF REPROGRAMMED INDUCED PLURIPOTENT STEM CELLS, METHOD AND COMPOSITIONS THEREOF” (priority 2009, published 2012)
Entries after “also recorded” stand apart in the source; their conditions may differ.

B1: Wnt3a: exogenous Wnt3a cytokine (R&D System, 1324-WN-002/CF) (protein, UniProt P56704 19-352, looked up)
Protein Wnt-3a: SYPIWWSLAVGPQYSSLGSQPILCASIPGLVPKQLRFCRNYVEIMPSVAEGIKIGIQECQHQFRGRRWNCTTVHDSLAIFGPVLDKATRESAFVHAIASAGVAFAVTRSCAEGTAAICGCSSRHQGSPGKGWKWGGCSEDIEFGGMVSREFADARENRPDARSAMNRHNNEAGRQAIASHMHLKCKCHGLSGSCEVKTCWWSQPDFRAIGDFLKDKYDSASEMVVEKHRESRGWVETLRPRYTYFKVPTERDLVYYEASPNFCEPNPETGSFGTRDRTCNVSSHGIDGCDLLCCGRGHNARAERRREKCRCVFHWCCYVSCQECTRVYDVHTCK

Assays:
[1] = test system: intermediate or partial states of reprogramming; settings: cited from earlier work
B-NP-iPSC = assay: methylcellulose hematopoietic colony forming assay of EB-differentiated cells; type: cell-based, mouse; settings: Wnt3a 40 ng/ml in EB culture media between day 2 and 4, versus non-treated EBs
Method: (§1) Differentiation of iPSC to hematopoietic and osteogenic lineages was performed as follows. Hematopoietic colony forming activity of d6 EBs differentiated from pluripotent stem cells was measured in methylcellulose medium with IL3, IL6, Epo, and SCF (M3434, StemCell Tech.) as described in Kyba et al. (Cell (109)29-37 (2002)). Hematopoietic colony type was determined on day 10. Colony identity was confirmed by leukostain analysis of cytospin preparation of the methylcellulose colonies. Osteogenic differentiation was performed by culturing pluripotent stem cells in 15 μl hanging drops (800 cells/drop) in ES differentiation media^16. Embryoid bodies (EB) from hanging drops were collected at 2 days, transferred to a 10 cm dish of non-tissue culture grade plastic with 10^−6 M of retinoic acid, and cultured for 3 days on the shaker (50 rpm) in an incubator. EBs were equally distributed among 3 wells of a 6-well tissue culture dish, and cultured in aMEM media supplemented with 10% FBS, 1× penicillin/streptomycin/glutamine (Invitrogen), 2 nM triiodothyronine, 1× insulin/transferrin/[…] (Gibco, #51300-044). The media were changed every other day. On day 11, one well of each sample was used to measure calcium concentration, osteogenic gene expression (RNA isolation), and for Alizarin Red staining. For Alizarin Red staining, cells were washed with PBS and fixed with 4% paraformaldehyde for 5 minutes at 20 C. Fixed cells were incubated for 15 minutes in Alizarin Red staining solution (Alizarin Red (Sigma, A5533) 2% in H2O, pH 4-4.3 adjusted with NH4OH, filtered with 0.45 uM membrane), and washed with Tris-HC1, pH4.0. Elemental calcium concentrations were measured by inductively coupled plasma—atomic emission spectroscopy (ICP-AES, HORIBA Jobin Yvon Activa-M) as described in Nomlru et al. (Anal. Chem. (66)3000-3004 (1994)) at the Center for Materials Science and Engineering at MIT, and three measurements were conducted to obtain mean and standard deviation values. […]

NP-iPSC = assay: as above; type: cell-based, mouse; settings: Wnt3a 40 ng/ml in EB culture media between day 2 and 4, versus non-treated EBs
Method: as §1

NSC-NP-iPSC = assay: as above; type: cell-based, mouse; settings: Wnt3a 40 ng/ml in EB culture media between day 2 and 4, versus non-treated EBs
Method: as §1

Molecule	effect on intermediate states of reprogramming [1]	hematopoietic potential (B-NP-iPSC)	blood-forming potential (NP-iPSC)	blood-forming potential (NSC-NP-iPSC)
Nc1ncn([C@@H]2O[C@H](CO)[C@@H](O)[C@H]2O)c(=O)n1 [5-AZA, 5-azacytidine]	can convert intermediate states to full pluripotency			
B1		little effect	restored; also recorded: enhanced	restored
